# Laboratory results: the supplement of paper PMC10567573
# B1: MCOLN1 (parent)
# chain: EEEDLRRRLKYFFMSPCDKFRAKG
# B2: SEC22B (parent)
# chain: AKQLFRKLNEQSPTRCTLEAGAMT
# Variants of: B1
# Assay: protein stability index of a GFP-peptide fusion (GPS, HEK-293T) (PSI 1-6); higher = more stable
# Settings: c terminus: a fixed tail appended
# 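Note: lentivirally expressed fusions sorted by FACS into six bins by GFP to DsRed ratio, PSI derived from sequencing read proportions per bin multiplied by bin number.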
row,Variant,protein stability index
1,E3R,2.15
2,E3C,2.65
3,E3H,2.33
4,E3F,2.04
5,E3Y,1.85
6,E3V,2.83
7,E3G,2.12
8,E3D,2.41
9,E3A,1.62
10,E3P,2.25
11,E3S,2.9
12,E3L,1.37
13,E3Q,1.5
14,E3T,1.52
15,E3N,1.91
16,E3M,1.15
17,E3W,1.14
18,E3K,1.87
19,E3I,1.64
20,E1D,2.96
21,E1G,2.46
22,E1F,2.29
23,E1N,1.51
24,E1R,1.36
25,E1Y,2.27

row,Variant,protein stability index
1,E1S,2.24
2,E1P,2.14
3,E1T,3.34
4,E1V,1.51
5,E1H,3.05
6,E1Q,1.62
7,E1K,1.76
8,E1L,2.16
9,E1I,2.19
10,E1C,3.42
11,E1A,2.53
12,E1W,2.2
13,E1M,2.08
14,R7S,2.82
15,R7C,2.38
16,R7H,2.73
17,R7P,3.33
18,R7M,1.55
19,R7T,2.65
20,R7Y,2.65
21,R7W,1.91
22,R7E,3.33
23,R7L,2.29
24,R7K,2.63
25,R7Q,2.52

row,Variant,protein stability index
1,R7A,2.35
2,R7V,2
3,R7N,2.55
4,R7D,3.01
5,R7F,2.44
6,R7I,2.39
7,D4F,1.42
8,D4W,1.44
9,D4A,1.13
10,D4N,2.04
11,D4R,2.23
12,D4Y,2.18
13,D4T,2.49
14,D4P,2.94
15,D4G,3.22
16,D4I,1.71
17,D4E,2.08
18,D4H,2.04
19,D4V,1.74
20,D4C,1.8
21,D4L,2.13
22,D4K,1.83
23,D4M,1.48
24,D4S,1.42
25,D4Q,1.57

row,Variant,protein stability index
1,R8M,2.05
2,R8C,1.86
3,R8A,2
4,R8Q,3
5,R8L,2.1
6,R8Y,1.64
7,R8N,3.29
8,R8P,3.23
9,R8I,1.76
10,R8E,3.21
11,R8F,1.42
12,R8G,2.97
13,R8D,3.11
14,R8V,2.62
15,R8S,2.67
16,R8T,2.42
17,R8W,2.42
18,R8K,2.71
19,R8H,2.35
20,E2W,4.34
21,E2N,1.96
22,E2A,2.37
23,E2I,2.21
24,E2H,2.72
25,E2R,3.07

row,Variant,protein stability index
1,E2D,1.92
2,E2T,1.72
3,E2M,2.58
4,E2P,2.23
5,E2Q,2.27
6,E2Y,1.94
7,E2S,1.86
8,E2G,1.67
9,R6V,2.34
10,R6L,1.76
11,R6I,2
12,R6Q,3.04
13,R6W,1.8
14,R6P,2.11
15,R6M,1.42
16,R6Y,1.64
17,R6G,2.99
18,R6N,3.78
19,R6D,3.28
20,R6H,1.97
21,R6F,1.59
22,R6E,3.48
23,R6S,3.6
24,R6T,2.66
25,R6C,2.85

row,Variant,protein stability index
1,R6K,1.9
2,R6A,3.18
3,L5Q,3.84
4,L5S,2.92
5,L5W,2.91
6,L5A,2.91
7,L5G,3.05
8,L5R,3.72
9,L5T,3.65
10,L5Y,2.45
11,L5F,3.09
12,L5N,3.51
13,L5I,1.92
14,L5E,3.53
15,L5K,3.2
16,L5C,2.82
17,L5H,3.31
18,L5D,3.43
19,L5P,3.17
20,L5V,3.09
21,L5M,2.32
22,L9C,3.03
23,L9D,4.1
24,L9E,4.4
25,L9A,3.3

# Variants of: B2
# Assay: as above
# Settings: c terminus: a fixed tail appended
row,Variant,protein stability index
1,T24M,2.59
2,T24I,1.92
3,T24L,2.13
4,T24H,2.06
5,T24P,1.72
6,T24D,2.39
7,T24K,2.29
8,T24N,1.98
9,T24V,1.99
10,T24E,2.09
11,T24R,2.14
12,T24Y,2.36
13,T24W,2.19
14,T24Q,2.39
15,T24F,1.99
16,T24S,2.19
17,T24G,2.49
